Results on 9 molecules are retold here after patent US20250388907A1, “MULTISPECIFIC POLYNUCLEOTIDE NANOSTRUCTURES FOR CANCER DETECTION AND THERAPY” (Atom Bioworks, Inc., priority 2021, published 2025).

For one data set, the system named is MM1S cells. Put plainly: MTT cell killing assay. Type of data set: cell-based, Human. Conditions: Example 3: 24 hours treatment, MTT after 48 hours; daunorubicin 40 μM; daunorubicin-loaded aptamers 4 μM and 2 μM. On the procedure: (§1) Daunorubicin-loaded aptamers were then diluted across various concentrations: 4 μM, 2 μM, 0.2 μM, and 0.02 μM. Untreated cells were used as a negative killing control. 10% DMSO was used as a positive killing control. 40 μM daunorubicin was also used as a positive killing control but one that matched the current National Comprehensive Cancer Network (NCCN) guidelines for AML daunorubicin chemotherapy dosing. Cells were incubated with their respective treatments for 24 hours before they were washed with cell medium. After 48 hours, the viability of all cells were assessed using MTT assays. All conditions were performed in triplicate for standard error analysis. MM1S cells were used as negative control in the assays having aptamers at 4 μM and 2 μM, respectively.
Daunorubicin-loaded aptamers were prepared as described in Example 3. The killing activity of daunorubicin-loaded aptamers alone and daunorubicin-loaded aptamers on various networks of polynucleotides, i.e., 3x3v1 nets and TRD1 tiles on KASUMI-1 cells (an AML cell line) were assessed using the procedures as described in Example 3. […]

The next data set relates to KASUMI-1 cells. Put plainly: MTT cell killing assay. Type of data set: cell-based, Human. Conditions: for ΔFold over Free (3x3v1): IC50 on 3x3v1 net versus free aptamer; for ΔFold over Free (TRD1): IC50 on TRD1 versus free aptamer. The method, then:
as §1
Daunorubicin-loaded aptamers were prepared as described in Example 3. The killing activity of daunorubicin-loaded aptamers alone and daunorubicin-loaded aptamers on various networks of polynucleotides, i.e., 3x3v1 nets and TRD1 tiles on KASUMI-1 cells (an AML cell line) were assessed using the procedures as described in Example 3. Additional negative killing controls were added to control for any inherent nonspecific killing effects by the networks of polynucleotides or aptamers: “3x3v1 net (Empty)” is 3x3v1 net without aptamers (therefore, no daunorubicin), “TRD1 (Empty)” is TRD1 without aptamers (therefore, no daunorubicin), “Scramble Aptamer 1”, “Scramble Aptamer 2”, and “Scramble Aptamer 3” were three oligos with lengths and A:T:C:G ratios similar to the tested aptamers but whose nucleotide sequences were randomized but also loaded with daunorubicin. 0.4 μM Daunorubicin were intercalated into aptamers across all conditions.
KASUMI-1 cells were cultured and incubated with all five aptamers (each loaded with daunorubicin) across six concentrations: 10 nM, 1 nM, […] and 100 fM. 10% DMSO, 40 μM daunorubicin, 4 μM daunorubicin, and 0.4 μM daunorubicin were used as positive killing controls. 3x3v1 net (Empty), TRD1 (Empty), Scramble Aptamer 1, Scramble Aptamer 2, and Scramble Aptamer 3 were negative killing controls. Incubation and washing procedures were as described in Experiment 3. After 48 hours, the samples were measured for viability via MTT assay. Data points were plotted and unpaired student's t—tests were performed to determine significance. For IC50 calculations, the concentrations were transformed to the logarithmic equivalent followed by normalization of the relative cell viability on a scale of 0-100. The normalized viability was subjected to nonlinear regression against the logarithmically converted inhibitor concentrations in the three parameters variable slope mode to determine the IC50. […]
ABWT050902 aptamers with D1 dock sites were loaded with daunorubicin as described previously. Aptamers were then immobilized on PTR45 and PTR86 (please refer to FIG. 17B and FIG. 17C). PTR45 was loaded with 20 ABWT050902 D1 aptamers, whereas PTR86 were loaded with 40. KASUMI-1 cells were grown, incubated with analytes, and measured via MTT cell killing assays as described previously.
In general terms: Tetrazolium assays rely on reduction of a dye to a coloured formazan, in cell work by metabolically active cells.

In another data set the test system is mouse IgG. Put plainly: SPR binding assay of Protein G activity, Biacore CM5 chip. Conditions: mouse IgG immobilized on CM5 chip, equivalent conjugate amount. The method, then: We used a sulfo-SMCC linker to conjugate an oligo (complementary to 3x3v1 docking sites) bearing a 5′ amine to the N terminal cysteine sulfhydryl R group on 6xHis-tagged recombinant Protein G (the oligo also bore a 3′ biotin for later purification). This was performed at room temperature in 1x phosphate buffered saline (PBS), pH 7.4. Oligo functionalization with sulfo-SMCC was performed first (as is typical), followed by two Zeba column (7 kDa molecular weight cutoff) cleanups to remove the excess sulfo-SMCC. Functionalized oligos were then placed in molar excess to Cys-Protein G. Purification proceeded via usage of monomeric avidin resin (to remove any unconjugated Cys-Protein G) followed by Ni^2+-NTA resin (to remove any unconjugated oligos). Oligo-Protein G conjugates were then docked to 3x3v1 (27 docking sites) and 3x3v2 (9 docking sites) nets and assayed for activity on SPR binding assays.
(In general: Surface plasmon resonance follows binding to a sensor surface in real time, without labels.)

The target in the next data set is CD117 (c-KIT) (UniProt P10721 P10721:26-524). Put plainly: SPR; aptamer alone, CD117 immobilized on CM5 chip. Conditions: tags: immobilized on Biacore CM5 chip; label: 5' FAM (flow cytometry). On the procedure:
Next, surface plasmon resonance (SPR) assays were performed to assess the ability of networks of polynucleotides to improve the binding affinity of an aptamer. Aptamer ABWT050902 (a CD 117 binder) was folded as previously described. Aptamers alone, and aptamers on a TRD1 (as illustrated in FIG. 2) were prepared at varying concentrations and flowed over a CM5 sensor chip on a Biacore SPR immobilized with CD117. The inter-binder distances of the 96 uniquely addressable docking loci for CD 117 binders was 5 nm. Concentrations were normalized to total aptamer amount.

For another data set, the target named is CD117 (Homo sapiens, UniProt P10721). Put plainly: SPR binding assay, Biacore CM5 chip. The conditions noted are these: CD117 immobilized on CM5 chip, concentrations normalized to total aptamer amount.
The nature of data set [1]: Kinetic fluorescent assay of daunorubicin release over time. The conditions noted are these: free daunorubicin in supernatant buffer. From the text:
Despite both “ABWT050902 Alone, With Daunorubicin” and “ABWT050902 on TRD1” conditions beginning the assay at the same time, the former began the assay with higher fluorescence of 400.0+ RFUs compared to the latter. This is because more free daunorubicin was in the supernatant buffer of “ABWT050902 Alone, with Daunorubicin” compared to “ABWT050902 on TRD1”.

[2] abbreviates: KASUMI-1, MTT after 48 hours, daunorubicin or daunorubicin-loaded aptamer alone, read-out: IC50 (pM) Free.
Where [3] appears, read: KASUMI-1, daunorubicin-loaded aptamer immobilized on 3x3v1 net, read-out: IC50 (pM) 3x3v1.
Setting [4] is: KASUMI-1, daunorubicin-loaded aptamer immobilized on 3x3v1 net, read-out: IC90 (pM) 3x3v1.
Setting [5] is: KASUMI-1, daunorubicin-loaded aptamer immobilized on TRD1, read-out: IC50 (pM) TRD1.
[6] abbreviates: KASUMI-1, daunorubicin-loaded aptamer immobilized on TRD1, read-out: IC90 (pM) TRD1.

“And” between values parts separate entries of the source, which are not always exact repeats. Identical values can stand only once. Like-named read-outs stand apart in the source and are kept apart here.

As usually defined, the IC50 is the concentration that gives 50% inhibition. A word on the Kd: it is the concentration at which binding is half-saturated. Low values mean higher affinity, high ones lower affinity. As a reminder, the IC90 is the point of the concentration-response curve where the effect stands at 90%.

CD117, sequence (P10721 26-976): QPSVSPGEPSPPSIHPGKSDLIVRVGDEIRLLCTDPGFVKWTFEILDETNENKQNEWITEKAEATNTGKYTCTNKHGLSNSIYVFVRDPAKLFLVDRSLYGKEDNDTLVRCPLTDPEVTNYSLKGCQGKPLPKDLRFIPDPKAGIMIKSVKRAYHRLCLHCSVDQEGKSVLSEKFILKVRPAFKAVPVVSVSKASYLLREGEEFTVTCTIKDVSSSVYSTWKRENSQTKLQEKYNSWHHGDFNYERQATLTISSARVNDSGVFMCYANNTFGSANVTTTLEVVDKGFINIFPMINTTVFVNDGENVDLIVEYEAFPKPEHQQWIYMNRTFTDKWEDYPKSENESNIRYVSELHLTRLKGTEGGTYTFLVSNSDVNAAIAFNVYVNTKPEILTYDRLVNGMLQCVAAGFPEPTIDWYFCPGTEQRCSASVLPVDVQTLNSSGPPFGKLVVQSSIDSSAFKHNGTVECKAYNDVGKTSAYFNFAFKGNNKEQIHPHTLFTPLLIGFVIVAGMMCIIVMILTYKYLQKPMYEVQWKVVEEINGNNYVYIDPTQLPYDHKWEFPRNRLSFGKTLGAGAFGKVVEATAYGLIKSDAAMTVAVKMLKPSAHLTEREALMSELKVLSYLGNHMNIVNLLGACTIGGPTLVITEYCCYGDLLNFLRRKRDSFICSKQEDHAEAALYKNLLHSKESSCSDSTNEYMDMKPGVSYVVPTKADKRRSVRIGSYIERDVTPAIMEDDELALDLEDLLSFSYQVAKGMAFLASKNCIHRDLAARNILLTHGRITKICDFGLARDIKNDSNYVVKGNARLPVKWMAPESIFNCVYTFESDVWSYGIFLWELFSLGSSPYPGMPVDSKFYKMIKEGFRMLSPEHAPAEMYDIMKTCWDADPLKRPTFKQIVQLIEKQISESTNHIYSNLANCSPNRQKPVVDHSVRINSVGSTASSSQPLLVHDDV
CD117 (c-KIT), sequence (P10721 26-524, one chain of several): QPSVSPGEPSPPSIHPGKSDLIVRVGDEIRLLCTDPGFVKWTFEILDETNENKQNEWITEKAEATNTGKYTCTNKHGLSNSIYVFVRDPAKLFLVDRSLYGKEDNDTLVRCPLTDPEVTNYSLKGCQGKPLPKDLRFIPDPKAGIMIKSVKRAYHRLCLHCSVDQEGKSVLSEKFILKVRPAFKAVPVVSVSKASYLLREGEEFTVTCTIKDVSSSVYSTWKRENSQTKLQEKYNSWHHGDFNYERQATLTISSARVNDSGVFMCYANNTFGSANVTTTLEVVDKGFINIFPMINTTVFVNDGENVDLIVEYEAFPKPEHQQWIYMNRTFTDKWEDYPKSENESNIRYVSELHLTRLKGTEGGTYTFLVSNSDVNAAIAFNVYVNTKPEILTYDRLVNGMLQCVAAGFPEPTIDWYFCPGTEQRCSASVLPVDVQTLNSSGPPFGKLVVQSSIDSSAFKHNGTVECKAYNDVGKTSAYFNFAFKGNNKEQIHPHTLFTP

As for `COc1cccc2c1C(=O)c1c(O)c3c(c(O)c1C2=O)C[C@@](O)(C(C)=O)C[C@@H]3O[C@H]1C[C@H](N)[C@H](O)[C@H](C)O1` [Daunorubicin, daunorubicin, reference compound], the “killing of MM1S cells” value with MM1S cells is “approximately 50%”. In the data set on KASUMI-1 cells (Example 3: 24 hours treatment, MTT after 48 hours, daunorubicin 40 μM, daunorubicin-loaded aptamers 4-0.02 μM), the “killing of KASUMI-1 cells” value is “approximately 20%”. Moreover, in the data set with KASUMI-1 cells (Homo sapiens, Kasumi 1, 48 h, read-out: IC50 (pM) Free), the IC50 amounted to 58400 pM.

B1: Oligo-Protein G conjugates: docking oligo conjugated via sulfo-SMCC linker to 6xHis-tagged recombinant Protein G (conjugate)
chain: TYKLILNGKTLKGETTTEAVDAATAEKVFKQYANDNGVDGEWTYDDATKTFTVTEKPEVIDASELTPAVTTYKLVINGKTLKGETTTEAVDAATAEKVFKQYANDNGVDGEWTYDDATKTFTVTEKPEVIDASELTPAVTTYKLVINGKTLKGETTTKAVDAETAEKAFKQYANDNGVDGVWTYDDATKTFTVTE
For the molecule B1, the “relative response, binding to mouse IgG” value in the data set on mouse IgG was roughly 145 RUs.

B2: 3x3v2-Conjugate: Oligo-Protein G conjugates immobilized on 3x3v2 nets (conjugate)
chain: B1 chain
For B2, in the data set with mouse IgG, the “relative response, binding to mouse IgG” value is roughly 170 RUs.

B3: ABWT050902 (ssDNA)
DNA: ATCCAGAGTGACGCAGCACCGCCCATGTCGAATAGGTGCCACGTAGGGACTTGGACACGGTGGCTTAGT
B3 showed a Kd in the data set with CD117 (c-KIT) of 1220 nM. That is a single-digit micromolar value.

B4: ABWT050902: CD117-binding aptamer, SEQ ID NO: 1; FAM-labeled or daunorubicin-loaded in tests (nucleic acid)
chain: B3 DNA
modifications: FAM label or daunorubicin loading in tests, chemistry not fully specified
On to B4, for which, in the data set with CD117, the Kd was ~1220 nM and 1220 nM. Besides, the “fluorescence at the beginning of the daunorubicin release assay” value in data set [1] is no less than 400.0 RFUs. In addition, the “ΔFold over Free (3x3v1)” value in the data set on KASUMI-1 cells is 2.4x. Also, the IC50 with KASUMI-1 cells (setting [2]) was found to be 529 pM; with KASUMI-1 cells (setting [3]), 218 pM. Further, in the data set with KASUMI-1 cells (setting [4]), the IC90 stood at 61800 pM.

B5: ZW25: CD123-binding aptamer, SEQ ID NO: 4 (nucleic acid)
chain: TGCGTGTGTAGTGTGTCTGGGCTACATCGATGAGCTGCCTAGGGTCCCTCTTAGGGATTTGGGCGGG
modifications: listed as DNA, chemistry not fully specified
B5: in the data set on KASUMI-1 cells, the “ΔFold over Free (3x3v1)” value was 8.0 x. In addition, in the data set on KASUMI-1 cells, the “ΔFold over Free (TRD1)” value is 34.7 x. Also, the IC50 with KASUMI-1 cells (setting [2]) stood at 3540 pM; in the data set on KASUMI-1 cells (setting [3]), 445 pM; with KASUMI-1 cells (setting [5]) it was 102 pM. In addition, the IC90 in the data set with KASUMI-1 cells (setting [4]) amounted to 128000 pM; in the data set on KASUMI-1 cells (setting [6]), 7830 pM.

B6: #1: CD117-binding aptamer, SEQ ID NO: 3 (nucleic acid)
chain: GAGGCATACCAGCTTATTCAAGGGGCCGGGGCAAGGGGGGGGTACCGTGGTAGGACATAGTAAGTGCAATCTGCGAA
modifications: listed as DNA, chemistry not fully specified
As to B6, the “ΔFold over Free (3x3v1)” value in the data set on KASUMI-1 cells is 3.6x. The “ΔFold over Free (TRD1)” value with KASUMI-1 cells is 5.6x. Moreover, the IC50 worked out at 531 pM with KASUMI-1 cells (setting [2]), 147 pM with KASUMI-1 cells (setting [3]) and 95 pM in the data set with KASUMI-1 cells (setting [5]). In addition, the IC90 with KASUMI-1 cells (KASUMI-1, daunorubicin-loaded aptamer alone, read-out: IC90 (pM) Free) was 108000 pM; with KASUMI-1 cells (setting [4]), 208000 pM; with KASUMI-1 cells (setting [6]), 165000 pM.

B7: ABWT050904: CD117-binding aptamer, SEQ ID NO: 2 (nucleic acid)
chain: ATCCAGAGTGACGCAGCACGAGCCTTGTGTCGTTCGGAGTGCTGGTCCACGACTACTATTGGACACGGTGGCTTAGT
modifications: listed as DNA, chemistry not fully specified
Take B7: in the data set with KASUMI-1 cells, the “ΔFold over Free (3x3v1)” value turned out to be 4.2x. Also, the IC50 in the data set with KASUMI-1 cells (setting [2]) amounted to 976 pM; in the data set on KASUMI-1 cells (setting [3]), 233 pM. Also, the IC90 in the data set on KASUMI-1 cells (setting [4]) stood at 17600 pM.

B8: CY30: CD123-binding aptamer, SEQ ID NO: 5 (nucleic acid)
chain: TGCGTGTGTACTGTGTCTGGTCCCGTAGCTACTAGCGAACTCCCTGCCTCTTAGGGATTTGGGCGG
modifications: listed as DNA, chemistry not fully specified
Turning to B8, in the data set with KASUMI-1 cells, the “ΔFold over Free (3x3v1)” value worked out at 5.5 x. Further, the “ΔFold over Free (TRD1)” value in the data set on KASUMI-1 cells is 38.1 x. In addition, the IC50 in the data set with KASUMI-1 cells (setting [2]) came to 5070 pM; with KASUMI-1 cells (setting [3]), 931 pM; with KASUMI-1 cells (setting [5]) it was 133 pM. Further, the IC90 in the data set with KASUMI-1 cells (setting [4]) is 8700 pM; with KASUMI-1 cells (setting [6]), 93600 pM.
